Assay results published in patent US20240368239A1, “Novel bispecific protein and use thereof” (SL METAGEN, priority 2020, published 2024).
“Also recorded” adds a separate entry of the source. Read-outs that look alike come from different tables or passages of the source.

T1: GLP-2 receptor (Homo sapiens, UniProt O95838)
T1 sequence (O95838 1-553): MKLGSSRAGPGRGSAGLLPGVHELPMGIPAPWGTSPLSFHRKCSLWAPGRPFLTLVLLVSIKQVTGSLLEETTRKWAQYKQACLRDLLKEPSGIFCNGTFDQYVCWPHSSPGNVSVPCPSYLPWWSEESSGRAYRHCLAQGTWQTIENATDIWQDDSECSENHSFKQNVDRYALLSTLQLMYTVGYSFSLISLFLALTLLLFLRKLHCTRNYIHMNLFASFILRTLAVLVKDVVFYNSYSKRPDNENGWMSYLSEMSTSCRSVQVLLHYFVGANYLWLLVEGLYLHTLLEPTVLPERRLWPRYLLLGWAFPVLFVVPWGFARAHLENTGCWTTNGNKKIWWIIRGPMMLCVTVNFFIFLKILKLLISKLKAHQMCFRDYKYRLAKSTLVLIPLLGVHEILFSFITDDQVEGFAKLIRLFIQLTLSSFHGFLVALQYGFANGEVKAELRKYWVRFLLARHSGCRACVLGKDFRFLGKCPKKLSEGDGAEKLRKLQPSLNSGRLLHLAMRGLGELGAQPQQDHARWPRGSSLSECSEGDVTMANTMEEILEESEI

B1: MG12-4: Knob/hole Fc heterodimer: GLP-1/Exendin 4 hybrid (SEQ 5), glycan linker, first fusion protein SEQ 27; GLP-2 (SEQ 17), second fusion protein SEQ 34 (protein)
chain 1: HGEGTFTSDVSSYLEGQAAKEFIAWLVKGGPSSGAPPPSGGGGGSGGGGSGGGGSAKNTTAPATTRNTTRGGEEKKKEKEKEEQEERTHTCPPCPSHTQPLGVFLFPPKPKDQLMISRTPEVTCVVVDVSQEDPEVQFNWYVDGVEVHNAKTKPREEQFNSTYRVVSVLTVLHQDWLNGKEYKCKVSNKGLPSSIEKTISKAKGQPREPQVYTLPPCQEEMTKNQVSLWCLVKGFYPSDIAVEWESNGQPENNYKTTPPVLDSDGSFFLYSRLTVDKSRWQEGNVFSCSVLHEALHNHYTQKSLSLSLGK
chain 2: HGDGSFSDEMNTILDNLAARDFINWLIQTKITDGGGGSGGGGSGGGGSEKEKEEQEERTHTCPPCPSHTQPLGVFLFPPKPKDQLMISRTPEVTCVVVDVSQEDPEVQFNWYVDGVEVHNAKTKPREEQFNSTYRVVSVLTVLHQDWLNGKEYKCKVSNKGLPSSIEKTISKAKGQPREPQVCTLPPSQEEMTKNQVSLSCAVKGFYPSDIAVEWESNGQPENNYKTTPPVLDSDGSFFLVSRLTVDKSRWQEGNVFSCSVLHEALHNHYTQKSLSLSLGK
B2: MG12-2: Knob/hole Fc heterodimer: GLP-2 (SEQ 17), glycan linker, second fusion protein SEQ 33; GLP-1 (SEQ 1), first fusion protein SEQ 25 (protein)
chain 1: HGDGSFSDEMNTILDNLAARDFINWLIQTKITDGGGGSGGGGSGGGGSAKNTTAPATTRNTTRGGEEKKKEKEKEEQEERTHTCPPCPSHTQPLGVFLFPPKPKDTLMISRTPEVTCVVVDVSQEDPEVQFNWYVDGVEVHNAKTKPREEQFNSTYRVVSVLTVLHQDWLNGKEYKCKVSNKGLPSSIEKTISKAKGQPREPQVYTLPPCQEEMTKNQVSLWCLVKGFYPSDIAVEWESNGQPENNYKTTPPVLDSDGSFFLYSRLTVDKSRWQEGNVFSCSVMHEALHNHYTQKSLSLSLGK
chain 2: HGEGTFTSDVSSYLEGQAAKEFIAWLVKGRGGGGGSGGGGSGGGGSEKEKEEQEERTHTCPPCPSHTQPLGVFLFPPKPKDTLMISRTPEVTCVVVDVSQEDPEVQFNWYVDGVEVHNAKTKPREEQFNSTYRVVSVLTVLHQDWLNGKEYKCKVSNKGLPSSIEKTISKAKGQPREPQVCTLPPSQEEMTKNQVSLSCAVKGFYPSDIAVEWESNGQPENNYKTTPPVLDSDGSFFLVSRLTVDKSRWQEGNVFSCSVMHEALHNHYTQKSLSLSLGK
B3: GLP-2-Fc homodimer: GLP-2 homodimer fused with Fc not containing the Knobs-into-Holes (KiH) structure (protein)
chain: B2 chain 2
modifications: first fusion protein of bispecific fusion protein containing GLP-1 analogue
notes: GLP-2 homodimer fused with Fc not containing the Knobs-into-Holes (KiH) structure

What was measured:
[1] = test system: B6 normal mice; test: MG12 vs. GLP-1 and GLP-2 combo: body weight and small intestine changes; assay type: in vivo; settings: 12 days SC, normalized to cumulative feed intake
Procedure: In particular, in order to observe changes in body weight and the small intestine following the substance administration, an experiment was conducted in B6 normal mice. […] After starting drug administration twice a week during the test period, feed intake was measured and expressed as cumulative feed intake, and pre-autopsy body weight was measured to calculate the body weight vs. feed intake. After the autopsy, the weight of the small intestine, and mucosal depth and villus height of the duodenum and the jejunum were measured. More specifically, after the autopsy, the entire gastrointestinal tract of the mouse was separated, the mesentery and the pancreas were excised, and the area where the ileum and the cecum meet was cut to separate the small intestine and the large intestine.

[2] = In vivo pharmacokinetics profile after subcutaneous administration (GLP-1-Fc ELISA and GLP-2-Fc ELISA); parameters: species or system male SD (Sprague Dawley) rats; settings: GLP-1-Fc ELISA
Procedure: First, each protein was administered to 3 male SD (Sprague Dawley) rats per group at a dose of 1 mg/kg by subcutaneous (SC) route. Before injection and after 0.5, 1, 5, 10, 24, 48, 72, 120, and 168 hours after the injection, blood was collected and stored at room temperature for 30 minutes to aggregate. After centrifuging the aggregated blood at 3,000 rpm for 10 minutes, serum of each sample was collected and stored in a cryogenic freezer. Analyses were performed by an assay designed to specifically detect the GLP-1 site and Fc in the administered protein (GLP-1-Fc ELISA) and an assay designed to specifically detect the GLP-2 site and Fc in the administered protein (GLP-2-Fc ELISA). Specifically, a method of loading a biological sample on a plate coated with an antibody that binds to mouse-derived human immunoglobulin G4 (IgG4) to detect the target protein using a biotinylated anti-GLP-1 antibody (GLP-1-Fc ELISA), and a method of loading a biological sample on a plate coated with a monoclonal antibody that specifically reacts with GLP-2, to detect the target protein using a secondary antibody having HRP conjugated to mouse-derived human immunoglobulin G4 (IgG4) (GLP-2-Fc ELISA) were used. The obtained and prepared serum samples were loaded with appropriate dilutions to be analyzed at a position on a straight line of the standard curve.

[3] = test system: Balb/c-nude mice; test: PET-MRI tissue distribution of Zr89-labelled proteins; assay type: in vivo; settings: Zr89 label, SC
Excerpt: Next, the present inventors performed an experiment in Balb/c-nude mice in order to observe the distribution in each tissue organ following the administration of a substance. Zr^89 was used as a radiotracer for tracking the distribution after administration of each substance. Each substance to be administered was labeled with Zr^89 as a reaction condition and a chelator selected through a preliminary test. The labeled Zr^89-protein was purified using a PD-10 column, and Zr^89 labeling efficiency and purity were confirmed using Radio TLC and SEC-HPLC. The labeling efficiency of the Zr^89-protein of 90% or more and the purity of 80% or more were determined to be appropriate, and the labeled protein was administered subcutaneously at 0.2 mCi/0.2 cc. Each administration substance was administered to three animals and static images for 20 minutes were obtained using PET-MRI at 1 hour, 6 hours, 24 hours, 48 hours, and 168 hours after injection. Through image analysis, the distribution of drugs as a function of time in the liver, small intestine, and large intestine was expressed as SUV (Standardized Uptake Value) and comparatively analyzed.

[4] = test system: B6 normal mice; test: Small intestine weight and body weight (GLP-1-Fc homodimer, GLP-2-Fc homodimer, MG12-1, MG12-4); assay type: in vivo; settings: SC twice a week, 4 doses; homodimers 10 nmol/kg, MG12 20 nmol/kg
Excerpt: In addition, the present inventors conducted the same experiment as above while only varying the administered substance, in order to confirm whether the bispecific fusion proteins (MG12-1 and MG12-4) designed in a form other than MG12-5 also increase the small intestine weight and energy absorption rate of experimental animals. Specifically, PBS, 10 nmol/kg GLP-1-Fc homodimer, 10 nmol/kg GLP-2-Fc homodimer, 20 nmol/kg MG12-1, and 20 nmol/kg MG12-4 were subcutaneously administered. The drug was administered twice a week for a total of 4 times for 2 weeks. After 4 doses, the body weight was measured before autopsy, and the small intestine was excised after the autopsy and weighed. After the autopsy, the entire gastrointestinal tract of the mouse was separated, the mesentery and the pancreas were excised, and the area where the ileum and the cecum meet was cut to separate the small intestine and the large intestine. The separated small intestine was perfused and washed with 10% neutral formalin to remove the contents, and was weighed after removing the neutral formalin with an absorbent towel.

[5] = test system: B6 normal mice; test: Fluorescence spectrometry tissue distribution of Cy5.5-labelled substances; assay type: in vivo
Procedure: Next, the present inventors performed an experiment in B6 normal mice in order to observe the distribution in each tissue and organ according to the administration of a bispecific fusion protein according to an embodiment of the present invention. Cy5.5 was used as a fluorophore for tracking the distribution after administration of each substance. Buffer exchange was performed for each substance to be administered, MG12-1, MG12-4, and GLP-1Fc homodimer with boric acid buffer (pH 8.5), and with reference to the protocol of the Cy5.5 labeling kit (GE, #PA15605) were allowed to react with an appropriate amount of Cy5.5 overnight under refrigeration conditions. Unreacted Cy5.5 in the reaction-completed substance was removed through the PBS substitution process, and whether Cy5.5 was reacted well was confirmed through the final SDS-PAGE. Each administered substance was diluted with 10% DMSO/PBS to have the same fluorescence intensity using an ELISA plate reader capable of measuring fluorescence intensity before being administered.

[6] = target: T1, GLP-2 receptor; test: GLP-2 in vitro activity, cAMP/CNG channel membrane potential fluorescence assay (Human GLP2R ACTOne cell line)
Procedure: Specifically, in order to evaluate the degree of CAMP induction by the GLP-2 specific reaction, a transformed cell line (Human GLP2R ACTOne™), having GLP-2 receptor expressed in a cell line expressing CNG channels that open in a CAMP-specific manner, was procured. […] The washed cells were diluted with a cell culture medium (DMEM/high glucose medium, supplemented with 10% FBS, 5% G418, 0.01% puromycin) and seeded at 3˜5×10^4 cells/100 μL/well, and were incubated in an incubator for about 20 hours at 37° C., 5% CO2. After removing the plate from the CO2 incubator, the cells were observed under a microscope, and when the cell confluence reached 80% or more, 1× dye-loaded solution (Elite™ fluorescent membrane potential dye kit, eEnzyme) was added at 100 μL/well. While blocking the light at room temperature, the reaction was carried out for 2 to 2.5 hours, and before adding the test solutions, the fluorescence baseline (F0) was measured using ELISA. Thereafter, the test solutions of various concentrations to be evaluated were treated at 50 μL/well, reacted for 0.5 hours, and then were measured for fluorescence value (Ft) using ELISA. The reactivity of each test solution was evaluated using the Ft/F0 ratio.

[7] = 24 hours after administration, Cy5.5 label

Row | Molecule | body weight increase vs. feed intake [1] | terminal half-life, rank among MG12-1, 3, 4 and 5 [2] | distribution to the liver (SUV) [3] | distribution to the small intestine and large intestine (SUV) [3] | small intestine weight [4] | weight change before autopsy (body weight) [4] | Average fluorescence intensity, Brain [5, 7] | Average fluorescence intensity, Large intestine [5, 7] | Average fluorescence intensity, Small intestine [5, 7] | distribution in the small intestine and the large intestine ([5]; compared to GLP-1-Fc homodimer) | GLP-2 activity lower than that of other variants [6] | SUV (Standardized Uptake Value) in liver, small intestine and large intestine ([3]; 1-168 hours) | EC50 ([6]; Table 3, GLP-2 activity) [nM] | relative activity (%), GLP-2 activity ([6]; compared to GLP-2-Fc homodimer) [%] | EC50 ([6]; read-out: EC50, GLP-2 activity, Table 4 experiment) [nM]
1 | B1 | statistically significant body weight increase compared to the co-administered group | shortest half-life | reduced or showed no difference compared to Fc | significantly high compared to that of GLP-1-Fc homodimer and GLP-2-Fc homodimer | greater increase in small intestine weight than the GLP-2-Fc homodimer administered group; also recorded: superior effect of increasing small intestine weight | numerical increase in body weight | 297 | 2343 | 4302 | larger | – | – | – | – | –
2 | B2 | – | – | – | – | – | – | – | – | – | – | 4-5 times | – | – | – | –
3 | B3 | – | – | – | – | statistically significant increase | no change | – | – | – | – | – | SUV values were increased compared to Fc in all of the three organs | 0.44 | 100 | 7.7
